Consider one substance from patent publication US20220251222A1, “IL-6Ralpha/IL-8R BISPECIFIC BINDING AGENTS FOR INHIBITING CANCER CELL MIGRATION” (The Johns Hopkins University, priority 2019, published 2022).

pKd: −log10 of the molar value.

In this experiment the target is human IL-6 (residues 3-185) displayed on the surface of yeast (human) (UniProt P05231). Put plainly: flow cytometry titration of IL-6Rα ECD on IL-6-displaying yeast. Background: A flow cytometer gives signals particle by particle.

As for “human IL-6Rα extracellular domain (ECD), residues 89-303 of the mature protein, with C-terminal biotin acceptor peptide and hexahistidine, biotinylated (from UniProt P08887 108-322) (receptor)”, the pKd (commonly the Kd on a negative log10 scale, so that one unit is a factor of ten) was 7.06.
